Results from the nanobody polyreactivity screen of Harvey et al. (2022).

Assay: yeast display, Sf9 membrane polyspecificity reagent, FACS + sequencing; frameworks hold sequencing errors
Outline: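 A synthetic nanobody library was expressed on Saccharomyces cerevisiae BJ5465 by galactose induction for 36–48 hours. The library was stained for 1 hour at 4 °C with 10% biotinylated, detergent-solubilized Sf9 membrane reagent and enriched with streptavidin microbeads before FACS. Low and high (top ~1%) gates were set on anti-HA fluorescence for expression and streptavidin fluorescence for reagent binding, and each polyreactivity label reflects the gate of origin.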

QVQLLESGGGLVQAGGSIRLTCAASGRIFYGNTMGWYRQAPGQETELVAAITIGDSTNYADSVKGRFTISRDNAKYTVYLQMNSLKPEDTAVFYCGKRNWWGYYKYDYWGQGSQVTVSS
polyreactivity (PSR sort gate): low polyreactivity

QVQLLESGGGLVQAGGSLRLSCAASGFIFAKNAMGWYRKAPGKERELVAAISASGGRTYYADSVKGRFTISRDNAKNTVYLQMNSLKPEDTAVYYCAARRDGRSGSYNYWGQGTQVTVSS
polyreactivity (PSR sort gate): high polyreactivity

QVQLLESGGGLVQAGGSLRLSCAASGFIFDIYAMGWYRQAPGKERELVASINWSGGDSTSYADSVKGRFTISRDNAKNTVFLQMYSLKPEDTAVYFCNAEYWSYSGGYPDEYDYWGLGTQVTVSS
polyreactivity (PSR sort gate): low polyreactivity

QVQLLESGGGLVQAGGSLRLSCAASGFTFLSNVMGRYRQAPGKERELVAGINFSGDGTYYADSVKGRFTISRDNAKNTVYLQMNSLKPEDTAVYYCAGDVEYYRDVPQQVYVSDDYWGQGTQVTVSS
polyreactivity (PSR sort gate): low polyreactivity

QVQLLESGGGLVQAGGSLRLSCAASGFTFRVNAMGWYIQAPGKERELVAAISSGGSTNYADSVKGRFTISRDNAKNTVYLQMNSLKPEDTAVYYCAKRFKYIYFWGQGTQVTVSS
polyreactivity (PSR sort gate): high polyreactivity

QVQLLESGGGLVQAGGSLRLSCAASGFTITRYAMGWYRQAPGKERELVAAITYRGGSTYYADSVKGRFTISRDNAKITVYLQMNSLKPEDTAVYYCAADALYYFSWYYYWGQGTQVTVSS
polyreactivity (PSR sort gate): high polyreactivity

QVQLLESGGGLVQAGGSLRLSCAASGLTFVRYDMGWDRQAPGKERELVAAISSSGGSTNYADSVKGRFTISRDNAKNTVYLQMNSLKPEDTAVYYCAADYTWRFLRFGYWGQGTQVTVSS
polyreactivity (PSR sort gate): high polyreactivity

QVQLLESGGGLVQAGGSLRLSCAASGNLFHVNAMGWYRQAPGKERELVASISRRGGSTNYADSVKGRFTISRANAKNTVYLQMNSLKPEDTAVYYCATRLTSAVGRYLYDFGYWGQGTQVTVSS
polyreactivity (PSR sort gate): high polyreactivity

QVQLLESGGGLVQAGGSLRLSCAASGRIFASYAMGWYRQAPGKARELVAAISTGGNTYYADSVKGRFTISRDNAKNTVYLQMNSLKPEDTAVYDCAALSGAHEHFVEYDYWGQGTQVTVSS
polyreactivity (PSR sort gate): low polyreactivity

QVQLLESGGGLVQAGGSLRLSCAASGRIFGSNAMGWYRPAPGKERELVAAITRGGSTNYADSVKGRFTISRDNAKNTVYLQMNSLKPEDTAVYYCAVRWYRKYNYWGQGTQVTVSS
polyreactivity (PSR sort gate): high polyreactivity

QVQLLESGGGLVQAGGSLRLSCAASGRIFGYYAMGWYRQAPGKERELVASISWSGGSTYYADSVKGRFSISRDNAKNTVYLQMNSLKPEDTAVYYCAAKRSFLSTIGNYDYWGQGTQVTVSS
polyreactivity (PSR sort gate): high polyreactivity

QVQLLESGGGLVQAGGSLRLSCAASGRIFQFYAMGWYRKAPGKERELVAANSVRGGSTYYAHSVKGRFTISRDNEKNTVYLQMNSLKPEDTAVYYCAASKWGGYYYWGQGTQVTVSS
polyreactivity (PSR sort gate): high polyreactivity

QVQLLESGGGLVQAGGSLRLSCAASGRIFSAYAMGWSRQAPGTERELVAAISWSGGSTYYADSVKGRFTISRDNAKNTVYLQMNSLKPEDTAVYYCAADYFYTSWYQHDYWGQGTQVTVSS
polyreactivity (PSR sort gate): low polyreactivity

QVQLLESGGGLVQAGGSLRLSCAASGRIFVTYAMGWYRQAPGKERELVAAITSRGGRTYYADSVKGRFTISRDNAKNTVYLQMNSLKPEATAVYYCAAYPGPGARYYYWGQGTQVTVSS
polyreactivity (PSR sort gate): high polyreactivity

QVQLLESGGGLVQAGGSLRLSCAASGRIFWNNAMGWYRQAPGKERELVAVISTRGGRTYYADSVKGRFTISRDNANNTVNLQMNSLKPEDTAVYYCAAEFLNKAVGGVTSIYDSWGQGTQVTVSS
polyreactivity (PSR sort gate): low polyreactivity

QVQLLESGGGLVQAGGSLRLSCAASGRTFRHNVMAWYRQAPGNERELVAAISYSRGSTHYADSVKGRFTISRDNAKNTVYFQMNSLKPEANAVYYCNRYSYDAHFLYPFRGHDYWGQGTQVTVTS
polyreactivity (PSR sort gate): low polyreactivity

QVQLLESGGGLVQAGGSLRLSCAASGRTFRINARGWYRQAPGKEREFVAAINYRGGSTYADSVKGRFTISRDNAKNTVYVQMNSLKPEDPAVYYCAAYATLWYYTGVHRGGFENWGQGSQVTVSS
polyreactivity (PSR sort gate): high polyreactivity

QVQLLESGGGLVQAGGSLRLSCAASGRTFTLYTMGWYRQAPGKERELVAAISARGGSTYYADSVKGRFTISRDNAKNTVYLQMNSLKPEDTAVYYCAAESNRLRYYYWGQGTQVTVSS
polyreactivity (PSR sort gate): high polyreactivity

QVQLLESGGGLVQAGGSLRLSCAASGRTLVGYAMGWYRQAPGTERELVAAITGSGGRTYYADSVKGRFTISRDNAKNTVYLQMNSLKPEDTAVYYCNKVYRVSSGAYLYDYWGQGTQVTVSS
polyreactivity (PSR sort gate): high polyreactivity

QVQLLESGGGLVQAGGSLRLSCAASGSIFTGNAMGWYRQAPGKERELVAAISSSGGSTYYADSVKGRFTISRDNAKNNVYLQMNSLKPEDTAVYYCAAYNYFLQYDYWGQGSQVTVSS
polyreactivity (PSR sort gate): low polyreactivity

QVQLLESGGGLVQAGGSLRLSCAASGSTFDWYVMGWYRQAPGKERELVAAINQGSGSTYYADSVKGRFTISRDNAKNTVYLQMNSLKPEDTAVYYCAADRYGAGYLYWPYDYWGQGTQVTVSS
polyreactivity (PSR sort gate): low polyreactivity

QVQLLESGGGLVQAGGSLRLSCAASGSTFGYYTMGWYRQAPGKERVLVAGISSGGSTNYADSVKGRFTISRDNAKNTVYLQMNSLKQEDTAVYYCDTGSYSYHRGYVTYARFGYWGQGTQVTVSS
polyreactivity (PSR sort gate): low polyreactivity

QVQLLESGGGLVQAGGSLRLSCAASGSTLARYTMGWSRQAPGKERELVATIDFGGVNTYYADSVKGRFTISRDNAKNTVYLQMNSLKPEDTAVYYCAVDNPFIWFFGPDEYWGQGTQVTVSS
polyreactivity (PSR sort gate): low polyreactivity

QVQLLESGGGLVQAGGSLRLSCAASGSTLKLNAMGWYRQAPGKDRELVAAITRSGGSTNYADSVKGRFTISRDNAKNTVSLQMNSLKPEDTAVYDCAADVLWDEFGYWGQGTQVTVSS
polyreactivity (PSR sort gate): low polyreactivity

QVQLLESGGGLVQAGGSLRLSCAASGSTLLQYAMGWYRQAPGKEREFVAAISASGARTYYADSVKGRFTISRDNAKNTVYLQMNSLKPEETAVYYCAALTQRSSFDYWGQGTQVTVSS
polyreactivity (PSR sort gate): high polyreactivity

QVQLLESGGGLVQAGGSLRLSCAASGTNFDYYLMGWYRQAPGKERELVAAISWSGASTYYADSVKGRFTISRDNAKNTVYLQMNSLKPEDSAVYYCAADYCVKTLIDYDYWGEGTQVTVSS
polyreactivity (PSR sort gate): low polyreactivity

QVQLLESGGGLVQAGGSLRLSCAASGYTFARYAMGWYRQAPGQERELVAAITSSGGSTYYADSVKGRFTISRDNAKNTVYLQMNSLKPEDTAVYYCNARGFQKSDPRGYLILNYWGQGTQVTVSS
polyreactivity (PSR sort gate): high polyreactivity

QVQLLESGGGLVQAGGSLRLSCAASRSTFPGYAMGWYRQAPGKETELVAAITWSGVTTYYADSVKGRFTISRDNAKYTVYLQMNSLKPEDTAVYYCATGTLYSDGAIYGYWGQGTQVTVSS
polyreactivity (PSR sort gate): low polyreactivity

QVQLLESGGGLVQAGGSLRLSCASSGRTFVRYGMGWSRQAPGKERELVAAITGSGSRTYYADSVKGRFTISRDNAKNTVYLQMNSLIPKDTAVYYCAGRGQGGAGDPRYPVYYWGQGTQVTVSS
polyreactivity (PSR sort gate): high polyreactivity

QVQLLESGGGLVQAGGSLRLSCASSGRTYWYYAMGWYRQAPGKERELVATITRSTGSTYYADSVKGRFTISRDNAKNTGYLQMNSLKPEDTAVYYCARLYYFNGDYWGQGTQVTVSS
polyreactivity (PSR sort gate): high polyreactivity

QVQLLESGGGLVQAGGSLRLSCASSGSIFFRNAMVWYRQAPGKEREYVAAITGSSVSTYYADSVKGRFTISRDNAKNTVYLQMNSLKPEDTAVYYCAVRKWIGYNPYDDWGQGTQVTVSS
polyreactivity (PSR sort gate): high polyreactivity
